This is an account of results in the Immune Epitope Database (IEDB).

Assay [1] deals with HLA-A*69:01. The experiment in a line: IEDB peptide-MHC binding, purified MHC/direct/fluorescence; filed as Kd, often an IC50 or EC50 that approximates it; ≥ and ≤ were set here for values at or beyond the usual limits of such assays.
The target in the next assay is HLA-C*05:01. The assay is described as above. The note with it: source organism: Shewanella sp. W3-18-1.
In assay [2] the target is HLA-A*02:01. Described as above.
The target in another assay is HLA-A*32:07. The experiment in a line: IEDB peptide-MHC binding, purified MHC/competitive/fluorescence; filed as Kd, often an IC50 or EC50 that approximates it; ≥ and ≤ were set here for values at or beyond the usual limits of such assays. Particulars: source organism: Shewanella sp. W3-18-1.
A further assay deals with HLA-B*83:01. The description is as above.
A further assay deals with HLA-B*45:06. The assay is described as above.
Another assay addresses HLA-B*15:42. Described as above.
The target in a further assay is HLA-A*32:15. The description is as above. The note with it: source organism: Shewanella sp. W3-18-1.
The target of the next assay is HLA-B*38:01. Kind of assay: IEDB peptide-MHC binding, purified MHC/direct/fluorescence; filed as Kd, often an IC50 or EC50 that approximates it; ≥ and ≤ were set here for values at or beyond the usual limits of such assays. The note with it: source organism: Mycobacterium tuberculosis str. Haarlem.
Assay [3] addresses HLA-B*18:01. The description is as above. Particulars: source organism: Mycobacterium tuberculosis.
A further assay deals with HLA-A*03:01. The description is as above.
In a further assay the target is HLA-B*40:01. Described as above. Particulars: source organism: Mycobacterium tuberculosis.
Assay [4] addresses HLA-A*26:01. Described as above. The note with it: source organism: Mycobacterium tuberculosis str. Haarlem.
Another assay has as its target HLA-B*27:05. The assay is described as above. The note with it: source organism: Mycobacterium tuberculosis.
Another assay deals with HLA-A*01:01. The description is as above. Particulars: source organism: Mycobacterium tuberculosis.
For a further assay, the target named is HLA-B*08:02. Described as above. Particulars: source organism: Mycobacterium tuberculosis str. Haarlem.
Another assay has as its target HLA-A*31:01. The assay is described as above. The note with it: source organism: Mycobacterium tuberculosis.
Assay [5] addresses HLA-B*46:01. Described as above. The note with it: source organism: Mycobacterium tuberculosis.
The target of a further assay is HLA-B*08:01. Described as above. Particulars: source organism: Mycobacterium tuberculosis str. Haarlem.
In a further assay the target is HLA-A*11:01. The assay is described as above. Particulars: source organism: Mycobacterium tuberculosis.
The next assay deals with HLA-B*48:01. The assay is described as above. Particulars: source organism: Mycobacterium tuberculosis.
A further assay deals with HLA-B*15:09. Described as above. The note with it: source organism: Mycobacterium tuberculosis str. Haarlem.
The target in assay [6] is HLA-B*57:01. The description is as above. Particulars: source organism: Mycobacterium tuberculosis.
In a further assay the target is HLA-B*58:01. Described as above.
Assay [7] concerns the target HLA-B*51:01. Described as above. Particulars: source organism: Mycobacterium tuberculosis.
The next assay addresses HLA-B*15:17. The description is as above. Particulars: source organism: Mycobacterium tuberculosis.
In assay [8] the target is HLA-B*39:01. The assay is described as above. The note with it: source organism: Mycobacterium tuberculosis str. Haarlem.
The next assay deals with HLA-B*15:01. Kind of assay: IEDB peptide-MHC binding, purified MHC/competitive/fluorescence; filed as Kd, often an IC50 or EC50 that approximates it; ≥ and ≤ were set here for values at or beyond the usual limits of such assays. The note with it: source organism: Mycobacterium tuberculosis variant bovis BCG str. Pasteur 1173P2.
A further assay concerns the target HLA-A*02:03. Kind of assay: IEDB peptide-MHC binding, purified MHC/direct/fluorescence; filed as Kd, often an IC50 or EC50 that approximates it; ≥ and ≤ were set here for values at or beyond the usual limits of such assays. Particulars: source organism: Zaire ebolavirus.
Another assay has as its target HLA-A*02:11. The assay is described as above. The note with it: source organism: Zaire ebolavirus.
Another assay deals with HLA-A*02:12. The description is as above. Particulars: source organism: Zaire ebolavirus.
A further assay deals with HLA-A*68:02. Described as above. The note with it: source organism: Zaire ebolavirus.
A further assay concerns the target HLA-A*23:01. Described as above. The note with it: source organism: Zaire ebolavirus.
In a further assay the target is HLA-A*24:03. The assay is described as above. Particulars: source organism: Zaire ebolavirus.
For another assay, the target named is HLA-A*02:19. Described as above. The note with it: source organism: Zaire ebolavirus.
Assay [9] has as its target HLA-B*18:01. The experiment in a line: IEDB peptide-MHC binding, purified MHC/competitive/fluorescence; filed as Kd, often an IC50 or EC50 that approximates it; ≥ and ≤ were set here for values at or beyond the usual limits of such assays. The note with it: source organism: Zaire ebolavirus.
Assay [10] has as its target HLA-A*69:01. The description is as above. Particulars: source organism: Zaire ebolavirus.
In assay [11] the target is HLA-A*26:01. The description is as above. Particulars: source organism: Zaire ebolavirus.
Assay [12] concerns the target HLA-B*46:01. Described as above. Particulars: source organism: Zaire ebolavirus.
The target of a further assay is HLA-B*27:03. The assay is described as above. Particulars: source organism: Zaire ebolavirus.
Assay [13] deals with HLA-B*57:01. The description is as above. The note with it: source organism: Zaire ebolavirus.
The target of assay [14] is HLA-A*02:01. Described as above. The note with it: source organism: Zaire ebolavirus.
In assay [15] the target is HLA-B*51:01. The description is as above. Particulars: source organism: Zaire ebolavirus.
For assay [16], the target named is HLA-B*39:01. The assay is described as above. The note with it: source organism: Zaire ebolavirus.
The mark [17] stands for this setting: source organism: Salmonella enterica subsp. enterica serovar Typhimurium.
[18] abbreviates: source organism: Shewanella sp. W3-18-1.
Setting [19] is: source organism: Mycobacterium tuberculosis.
Setting [20] is: source organism: Mycobacterium tuberculosis variant bovis BCG str. Pasteur 1173P2.

A value given as a limit tells only on which side of the number the result lay.

Take LMMSSPPPI: the Kd with HLA-A*69:01 [1] (setting [17]) is 0.174 µM; in the assay with HLA-C*05:01, at least 20 µM; in the assay with HLA-A*02:01 [2] (setting [17]) it was 0.0123 µM; in the assay with HLA-A*32:07, 0.0508 µM; with HLA-B*83:01 (setting [18]), at least 5 µM; with HLA-B*45:06 (setting [18]), at least 5 µM. The Kd is at least 5 µM with HLA-B*15:42 (setting [18]) and 0.137 µM with HLA-A*32:15.

With RPRRASSPF, the Kd in the assay with HLA-B*38:01 was at least 20 µM; with HLA-B*18:01 [3], 9.95 µM; with HLA-A*03:01 (setting [19]), at least 20 µM; in the assay with HLA-B*40:01, at least 20 µM; with HLA-A*69:01 [1] (setting [19]), at least 20 µM; in the assay with HLA-A*26:01 [4], at least 20 µM. Further, the Kd was at least 20 µM with HLA-B*27:05; at least 20 µM with HLA-A*01:01; 9.48 µM with HLA-B*08:02; at least 20 µM with HLA-A*31:01; at least 20 µM with HLA-B*46:01 [5]; 0.036 µM with HLA-B*08:01. Further, the Kd with HLA-A*11:01, with HLA-B*48:01, in the assay with HLA-B*15:09, with HLA-B*57:01 [6], with HLA-B*58:01 (setting [19]) and in the assay with HLA-A*02:01 [2] (setting [19]) was at least 20 µM in each case. Moreover, the dissociation constant Kd in the assay with HLA-B*51:01 [7] was at least 20 µM; in the assay with HLA-B*15:17, 0.273 µM; with HLA-B*39:01 [8], at least 20 µM; in the assay with HLA-B*83:01 (setting [20]) it was 0.109 µM; with HLA-B*15:01, 0.288 µM; with HLA-B*45:06 (setting [20]), at least 5 µM. The same sequence yielded a Kd with HLA-B*15:42 (setting [20]) of at least 5 µM.

Take TGIVSSMHY: the Kd with HLA-A*02:03, in the assay with HLA-A*03:01 (source organism: Zaire ebolavirus), with HLA-A*02:11, in the assay with HLA-A*02:12, with HLA-A*68:02 and with HLA-A*23:01 was at least 20 µM in each case. The equilibrium dissociation constant (Kd) in the assay with HLA-A*24:03, with HLA-B*58:01 (source organism: Sudan ebolavirus - Maleo (1979)), with HLA-A*02:19, in the assay with HLA-B*18:01 [9], with HLA-A*69:01 [10] and with HLA-A*26:01 [11] was at least 20 µM throughout. For the same sequence, the Kd in the assay with HLA-B*46:01 [12], with HLA-B*27:03, in the assay with HLA-B*57:01 [13], with HLA-A*02:01 [14], in the assay with HLA-B*51:01 [15] and with HLA-B*39:01 [16] was at least 20 µM throughout.
